In patent US20210317456:

Experiments:
IgM (Homo sapiens) [1] = test: filter; conditions: Zorbax, SB18, 37 C
IgA (Homo sapiens) [2] = test: filter; conditions: Zorbax, SB18, 37 C
[3] = test system: IgG3-Fc (Homo sapiens), P01860-1; test: filter; conditions: n (P) = NapdU; Zorbax, SB18, 37 C
[4] = test system: β-FGFR fusion (Fc fusion protein) (Homo sapiens); test: filter; conditions: Zorbax, SB18, 37 C
[5] = test system: IgG1-Fc (Homo sapiens), P01857-1; test: filter; conditions: n (P) = NapdU; Zorbax, SB18, 37 C
[6] = test system: Immunoglobulin G (total IgG); test: pulldown
[7] = test system: IgG3-Kappa (Homo sapiens), P01860-1+P01834; test: pulldown; conditions: Protein L beads
[8] = test system: IgG1-Kappa (Homo sapiens), P01857-1+P01834; test: pulldown; conditions: Protein L beads
[9] = test system: IgG4-Kappa (Homo sapiens), P01861-1+P01834; test: pulldown; conditions: Protein L beads
[10] = test system: Total IgG (monkey) (monkey); test: filter; conditions: Zorbax, SB18, 37 C
IgD (Homo sapiens) [11] = test: filter; conditions: Zorbax, SB18, 37 C
[12] = test system: Total IgG (rabbit) (Oryctolagus cuniculus); test: filter; conditions: Zorbax, SB18, 37 C
[13] = test system: IgG2-Fc (Homo sapiens), P01859-1; test: filter; conditions: n (P) = NapdU; Zorbax, SB18, 37 C
[14] = test system: IgG4-Fc (Homo sapiens), P01861-1; test: filter; conditions: n (P) = NapdU; Zorbax, SB18, 37 C
[15] = test system: Total IgG (mouse) (Mus musculus); test: pulldown; conditions: P = 2NapdU; Zorbax beads, SB18, 37C
IgM (Homo sapiens) [16] = test: pulldown; conditions: Zorbax beads, SB18, 37C
[17] = test system: Total IgG (monkey) (monkey); test: pulldown; conditions: Zorbax beads, SB18, 37C
IgA (Homo sapiens) [18] = test: pulldown; conditions: Zorbax beads, SB18, 37C
IgM (cow) (Bos taurus) = test: pulldown; conditions: P = 2NapdU; Zorbax beads, SB18, 37C
[19] = test system: Total IgG (sheep) (Ovis aries); test: pulldown; conditions: P = 2NapdU; Zorbax beads, SB18, 37C
[20] = test system: IgG3-Fc (Homo sapiens), P01860-1; test: pulldown; conditions: 37C, bead partitioning
[21] = test system: IgG2-Fc (Homo sapiens), P01859-1; test: pulldown; conditions: 37C, bead partitioning
[22] = test system: IgG4-Fc (Homo sapiens), P01861-1; test: pulldown; conditions: 37C, bead partitioning
IgD (Homo sapiens) [23] = test: pulldown; conditions: Zorbax beads, SB18, 37C
[24] = test system: Total IgG (cow) (Bos taurus); test: pulldown; conditions: P = 2NapdU; Zorbax beads, SB18, 37C
[25] = test system: β-FGFR fusion (Fc fusion protein) (Homo sapiens); test: pulldown; conditions: 37C, bead partitioning
[26] = test system: Total IgG (goat) (Capra hircus); test: pulldown; conditions: P = 2NapdU; Zorbax beads, SB18, 37C
[27] = test system: Total IgG (rabbit) (Oryctolagus cuniculus); test: pulldown; conditions: Zorbax beads, SB18, 37C
[28] = test system: IgG1-Fc (Homo sapiens), P01857-1; test: pulldown; conditions: 37C, bead partitioning
[29] = test system: IgG1 (mouse) (Mus musculus); test: pulldown; conditions: P = 2NapdU; Protein L beads, SB17; printed as 3E07 (minus sign missing)
[30] = test system: Immunoglobulin G (total IgG) (Homo sapiens); test: filter; conditions: SB18, 5 mM MgCl2, 37 C

Chain of IgG3-Fc (Homo sapiens), P01860-1 (P01860 other isoform, or with tags, fused parts or gaps): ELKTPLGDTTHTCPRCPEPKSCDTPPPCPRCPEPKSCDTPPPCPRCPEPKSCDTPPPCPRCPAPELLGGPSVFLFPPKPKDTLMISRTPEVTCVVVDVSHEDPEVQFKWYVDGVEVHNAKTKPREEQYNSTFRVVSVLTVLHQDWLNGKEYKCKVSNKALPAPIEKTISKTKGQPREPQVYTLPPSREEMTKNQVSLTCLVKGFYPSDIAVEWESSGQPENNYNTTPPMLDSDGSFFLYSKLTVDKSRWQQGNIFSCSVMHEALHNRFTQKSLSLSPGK
Chain of IgG3-Kappa (Homo sapiens), P01860-1+P01834 (P01860 other isoform, or with tags, fused parts or gaps, chain 1 of 2, other chains not shown): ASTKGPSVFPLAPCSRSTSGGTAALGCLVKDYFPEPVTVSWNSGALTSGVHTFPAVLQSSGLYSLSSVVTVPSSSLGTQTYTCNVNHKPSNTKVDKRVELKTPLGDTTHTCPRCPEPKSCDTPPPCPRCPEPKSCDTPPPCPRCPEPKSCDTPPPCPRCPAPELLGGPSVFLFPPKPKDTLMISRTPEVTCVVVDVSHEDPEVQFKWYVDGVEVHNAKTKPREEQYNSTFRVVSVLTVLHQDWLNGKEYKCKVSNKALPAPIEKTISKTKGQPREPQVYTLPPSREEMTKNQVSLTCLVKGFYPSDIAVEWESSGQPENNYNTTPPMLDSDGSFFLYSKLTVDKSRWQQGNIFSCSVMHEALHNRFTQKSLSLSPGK
Chain of IgG2-Fc (Homo sapiens), P01859-1 (P01859 other isoform, or with tags, fused parts or gaps): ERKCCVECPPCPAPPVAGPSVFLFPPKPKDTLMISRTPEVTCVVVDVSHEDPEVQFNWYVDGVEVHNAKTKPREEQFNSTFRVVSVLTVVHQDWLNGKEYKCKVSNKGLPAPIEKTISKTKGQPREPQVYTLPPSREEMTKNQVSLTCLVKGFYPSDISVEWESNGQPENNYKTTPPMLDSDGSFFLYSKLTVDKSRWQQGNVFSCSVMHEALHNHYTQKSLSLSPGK
Chain of IgG4-Fc (Homo sapiens), P01861-1 (P01861 other isoform, or with tags, fused parts or gaps): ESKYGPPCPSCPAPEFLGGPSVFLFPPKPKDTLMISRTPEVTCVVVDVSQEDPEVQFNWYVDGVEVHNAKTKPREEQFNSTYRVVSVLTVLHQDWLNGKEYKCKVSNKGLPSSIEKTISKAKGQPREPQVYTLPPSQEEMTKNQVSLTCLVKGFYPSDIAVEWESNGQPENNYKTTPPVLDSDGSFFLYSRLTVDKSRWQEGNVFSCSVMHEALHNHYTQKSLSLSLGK
Chain of IgG4-Kappa (Homo sapiens), P01861-1+P01834 (P01861 other isoform, or with tags, fused parts or gaps, chain 1 of 2, other chains not shown): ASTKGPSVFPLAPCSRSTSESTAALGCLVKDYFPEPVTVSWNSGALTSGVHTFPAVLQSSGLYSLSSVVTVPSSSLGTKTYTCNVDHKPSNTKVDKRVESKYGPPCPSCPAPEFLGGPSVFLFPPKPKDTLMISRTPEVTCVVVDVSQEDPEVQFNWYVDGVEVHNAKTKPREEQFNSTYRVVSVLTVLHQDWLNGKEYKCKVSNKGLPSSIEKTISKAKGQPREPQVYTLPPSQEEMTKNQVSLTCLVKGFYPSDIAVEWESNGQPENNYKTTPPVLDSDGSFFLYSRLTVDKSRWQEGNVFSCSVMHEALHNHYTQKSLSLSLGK

Q: With “CCTCCATACGGTACGATTTTCAGTTGGATCCAGTACCTGGCTGGAGAGAA [5406-56_3]” as the sequence, how does the Kd (IgM (Homo sapiens) [1]; n (P) = NapdU) read?
A: 100 nM

Q: And the Kd (IgA (Homo sapiens) [2]; n (P) = NapdU)?
A: 200 nM

Q: What about the Kd [3] of the same sequence?
A: 400 nM

Q: And the Kd ([4]; n (P) = NapdU)?
A: 3 nM

Q: What about the Kd [5] of the same sequence?
A: 2 nM

Q: And the Kd ([6]; P = NapdU at all n positions, SB18, 5 mM MgCl2, 37C, bead partitioning, 4.54 nM in Table 2)?
A: 3.13 nM

Q: What about the Kd ([7]; n (P) = NapdU, SB17, 37 C) of the same sequence?
A: 80 nM

Q: And the Kd ([8]; n (P) = NapdU, SB17, 37 C)?
A: 2 nM

Q: What about the Kd ([9]; n (P) = NapdU, SB17, 37 C) of the same sequence?
A: 20 nM

Q: How did the Kd (IgM (Homo sapiens) [1]; n (P) = 2NapdU) turn out when “CGGCACTCCACATCCAAGACTGCGGTTACCTTGTAGGCGATTATGGGCAG [5334-8_3]” was run?
A: 100 nM

Q: And the Kd ([10]; n (P) = 2NapdU)?
A: 20 nM

Q: And the Kd (IgA (Homo sapiens) [2]; n (P) = 2NapdU)?
A: 200 nM

Q: And the Kd (IgD (Homo sapiens) [11]; n (P) = 2NapdU)?
A: 600 nM

Q: What about the Kd ([4]; n (P) = 2NapdU) of the same sequence?
A: 9 nM

Q: And the Kd ([12]; n (P) = 2NapdU)?
A: 20 nM

Q: And the Kd ([6]; P = 2NapdU at all n positions, SB18, 37C, 12.2 nM in Table 4)?
A: 7.52 nM

Q: And the Kd ([7]; n (P) = 2NapdU, SB17, 37 C)?
A: 7 nM

Q: And the Kd ([8]; n (P) = 2NapdU, SB17, 37 C)?
A: 40 nM

Q: And the Kd ([9]; n (P) = 2NapdU, SB17, 37 C)?
A: 10 nM

Q: How did the Kd (IgM (Homo sapiens) [1]; n (P) = NapdU) turn out when “GCCTGCACGATGGCGAACTCCCTGAATGCTCTTGTCTTAAGTCCCCAACA [14125-144_3]” was run?
A: 40 nM

Q: And the Kd ([10]; n (P) = NapdU)?
A: 80 nM

Q: And the Kd (IgA (Homo sapiens) [2]; n (P) = NapdU)?
A: 30 nM

Q: And the Kd [3]?
A: 5 nM

Q: And the Kd [13]?
A: 8 nM

Q: And the Kd [14]?
A: 20 nM

Q: And the Kd (IgD (Homo sapiens) [11]; n (P) = NapdU)?
A: 600 nM

Q: And the Kd ([4]; n (P) = NapdU)?
A: 3 nM

Q: What about the Kd ([12]; n (P) = NapdU) of the same sequence?
A: 40 nM

Q: And the Kd [5]?
A: 40 nM

Q: What about the Kd ([6]; P = NapdU at all n positions, SB18, 37C, 18.8 nM in Table 6) of the same sequence?
A: 16.3 nM

Q: And the Kd ([7]; n (P) = NapdU, SB17, 37 C)?
A: 4 nM

Q: And the Kd ([8]; n (P) = NapdU, SB17, 37 C)?
A: 20 nM

Q: And the Kd ([9]; n (P) = NapdU, SB17, 37 C)?
A: 5 nM

Q: What does the source list for “GCGGTTACCTTGTAGGCGATTATGGGCA [5334-8_34]”?
A: Kd [15]: 200 nM; Kd (IgM (Homo sapiens) [16]; P = 2NapdU): 0.6 nM; Kd ([17]; P = 2NapdU): 6 nM; Kd (IgA (Homo sapiens) [18]; P = 2NapdU): 40 nM; Kd ([6]; P = 2NapdU, SB18, 37C, 8E-09 M in Table 7): 9.71 nM; Kd (IgM (cow) (Bos taurus)): 40 nM; Kd [19]: 500 nM; Kd ([20]; P = 2NapdU): 1 nM; Kd ([21]; P = 2NapdU): 2 nM; Kd ([7]; P = 2NapdU, SB17, 37C): 4 nM; Kd ([8]; P = 2NapdU, SB17, 37C): 20 nM; Kd ([22]; P = 2NapdU): 2 nM; Kd (IgD (Homo sapiens) [23]; P = 2NapdU): 60 nM; Kd [24]: 500 nM; Kd ([25]; P = 2NapdU): 2 nM; Kd ([9]; P = 2NapdU, SB17, 37C): 3 nM; Kd [26]: 600 nM; Kd ([27]; P = 2NapdU): 9 nM; Kd ([28]; P = 2NapdU): 5 nM; Kd [29]: 300 nM

Q: Which results are given for “GGTACGATTTTCAGTTGGATCCAGTAC [5406-56_48]”?
A: Kd (IgM (Homo sapiens) [16]; P = NapdU): 70 nM; Kd ([17]; P = NapdU): 100 nM; Kd (IgA (Homo sapiens) [18]; P = NapdU): 200 nM; Kd ([6]; P = NapdU, SB18, 37C, 6E-09 M in Table 7): 5.81 nM; Kd ([20]; P = NapdU): 70 nM; Kd ([7]; P = NapdU, SB17, 37C): 100 nM; Kd ([8]; P = NapdU, SB17, 37C): 2 nM; Kd ([22]; P = NapdU): 30 nM; Kd (IgD (Homo sapiens) [23]; P = NapdU): 500 nM; Kd ([25]; P = NapdU): 4 nM; Kd ([9]; P = NapdU, SB17, 37C): 50 nM; Kd ([28]; P = NapdU): 3 nM

Q: With “GTACGATTTTCAGTTGGATCCAGTACCTGG [5406-56_25]” as the sequence, how does the Kd ([30]; n (P) = NapdU, sequence identical to _21 to _25) read?
A: 21.9 nM

Q: For “TACGGTACGATTTTCAGTTGGATCCAGTAC [5406-56_45]”, which Kd ([30]; n (P) = NapdU) is on record?
A: 21.8 nM

Q: How did the Kd ([30]; n (P) = NapdU) turn out when “TACGGTACGATTTTCAGTTGGATCCAGTACC [5406-56_39]” was run?
A: 6.74 nM

Q: With “TACGGTACGATTTTCAGTTGGATCCAGTACCT [5406-56_33]” as the sequence, how does the Kd ([30]; n (P) = NapdU) read?
A: 5.31 nM

Q: For “TACGGTACGATTTTCAGTTGGATCCAGTACCTG [5406-56_27]”, which Kd ([30]; n (P) = NapdU) is on record?
A: 5.56 nM

Q: How did the Kd ([30]; n (P) = 2NapdU) turn out when “TCCAAGACTGCGGTTACCTTGTAGGCGATTATGGGCAG [5334-8_9]” was run?
A: 8.38 nM

Q: How did the Kd ([30]; n (P) = 2NapdU) turn out when “TGCGGTTACCTTGTAGGCGATTATGGGCAG [5334-8_24]” was run?
A: 5.51 nM

Q: For “TGGCGAACTCCCTGAATGCTCTTGTCTT [14125-144_30]”, which Kd (IgM (Homo sapiens) [16]; P = NapdU) is on record?
A: 6 nM

Q: And the Kd ([17]; P = NapdU)?
A: 60 nM

Q: What about the Kd (IgA (Homo sapiens) [18]; P = NapdU) of the same sequence?
A: 100 nM

Q: What about the Kd ([6]; P = NapdU, SB18, 37C, 3E-08 M in Table 7) of the same sequence?
A: 8.18 nM

Q: And the Kd ([20]; P = NapdU)?
A: 2 nM

Q: And the Kd ([21]; P = NapdU)?
A: 7 nM

Q: And the Kd ([7]; P = NapdU, SB17, 37C)?
A: 8 nM

Q: And the Kd ([8]; P = NapdU, SB17, 37C)?
A: 40 nM

Q: What about the Kd ([22]; P = NapdU) of the same sequence?
A: 30 nM

Q: And the Kd (IgD (Homo sapiens) [23]; P = NapdU)?
A: 80 nM

Q: And the Kd ([25]; P = NapdU)?
A: 4 nM

Q: And the Kd ([9]; P = NapdU, SB17, 37C)?
A: 4 nM

Q: What about the Kd ([27]; P = NapdU) of the same sequence?
A: 100 nM

Q: And the Kd ([28]; P = NapdU)?
A: 30 nM
